Experimental data published in patent US20230265179A1 (TWIST BIOSCIENCE, published 2023).

T1: CD40L (UniProt P29965 113-261, limits assumed)
T1 construct: SPR analyte
T1 sequence (looked up): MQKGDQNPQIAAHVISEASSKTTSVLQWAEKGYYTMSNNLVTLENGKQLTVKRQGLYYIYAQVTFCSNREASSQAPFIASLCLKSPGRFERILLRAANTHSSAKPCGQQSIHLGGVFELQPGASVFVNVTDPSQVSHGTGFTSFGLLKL

T2: CD40L over-expressed on Expi293 cells (UniProt P29965 1-261, limits assumed)
T2 construct: whole, on cells; also called cytokine over-expressing Expi293 cells
T2 sequence (looked up): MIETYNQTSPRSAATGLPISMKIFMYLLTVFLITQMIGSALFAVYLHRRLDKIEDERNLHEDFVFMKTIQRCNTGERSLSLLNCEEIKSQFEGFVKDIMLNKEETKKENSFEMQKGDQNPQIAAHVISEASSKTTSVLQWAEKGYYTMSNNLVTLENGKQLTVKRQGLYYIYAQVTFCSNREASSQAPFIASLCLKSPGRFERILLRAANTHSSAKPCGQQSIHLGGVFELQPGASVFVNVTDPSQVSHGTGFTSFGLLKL


Experiments:
CD40L = target: T1, CD40L; assay: SPR (Carterra LSA), antibody amine-coupled, 1:1 model
[1] = target: T2, CD40L over-expressed on Expi293 cells; assay: flow cytometry, 100 nM antibody, CD40L-Expi293 vs parent Expi293 cells;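 further: ratio is the mean fluorescence intensity on CD40L-overexpressing Expi293 cells divided by the mean fluorescence intensity on parental Expi293 cells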
Description: All incubations and washes were in buffer containing PBS+1% BSA. MFI Ratio is defined by the mean fluorescence intensity (MFI) of the cytokine over-expressing Expi293 cell over the Expi293 parent cell. […] EC50 was calculated in GraphPad Prism.

Binder	Kd (CD40L) [nM]	koff (CD40L) [s⁻¹]	kon (CD40L) [M⁻¹ s⁻¹]	100 nM FACS (MFI Ratio) [1] [ratio]
CD40L-23 (VHH) VHH: EVQLVESGGGLVQPGGSLRLSCAASGSIDRINAMGWFRQAPGKEREFVAVIYSSDGSTLYADSVKGRFTISADNSKNTAYLQMNSLKPEDTAVYYCAAEPYGSGSSLISEYDWGQGTLVTVSS	3	0.000555	185000	44.4
CD40L-26 (VHH) VHH: EVQLVESGGGLVQPGGSLRLSCAASGLTFSRYEMGWFRQAPGKEREFVAAVTEDGSINYADSVKGRFTISADNSKNTAYLQMNSLKPEDTAVYYCAAEIGYYSGGTYFSSEAWGQGTLVTVSS	0.491	0.000211	429000	123
CD40L-1 (VHH) VHH: EVQLVESGGGLVQPGGSLRLSCAASGRTFSSIYAMGWFRQAPGKEREFIAVIYWRDGSTLYADSVKGRFTISADNSKNTAYLQMNSLKPEDTAVYYCAAEPYGSGSSLISEYDWGQGTLVTVSS	0.986	9.43e-05	95600	119
CD40L-2 (VHH) VHH: EVQLVESGGGLVQPGGSLRLSCAASGGRTFSRYDMGWFRQAPGKEREFVAAISMSGDDAAYADSVKGRFTISADNSKNTAYLQMNSLKPEDTAVYYCASDHYDTDTKSDVYNWGQGTLVTVSS	3.18	0.000725	228000	99.1
CD40L-53 (VHH) VHH: EVQLVESGGGLVQPGGSLRLSCAASGGRTFSDYDMGWFRQAPGKEREFVAAIDASGGFTEYADSVKGRFTISADNSKNTAYLQMNSLKPEDTAVYYCASDHYDTDTKSDVYNWGQGTLVTVSS	0.0983	0.000167	1.7e+06	104
CD40L-10 (VHH) VHH: EVQLVESGGGLVQPGGSLRLSCAASGRIFSTYFMGWFRQAPGKEREFVAAIYWSNGKTQYADSVKGRFTISADNSKNTAYLQMNSLKPEDTAVYYCAAWLNGGNRWGQGTLVTVSS	≤ 0.326	≤ 1e-05	30700	93.6
CD40L-3 (VHH) VHH: EVQLVESGGGLVQPGGSLRLSCAASGRIFSTYFMGWFRQAPGKEREWVSSIYSDGSTTDYADSVKGRFTISADNSKNTAYLQMNSLKPEDTAVYYCAAWLNGGNRWGQGTLVTVSS	2.91	0.000159	54700	87.9
CD40L-7 (VHH) VHH: EVQLVESGGGLVQPGGSLRLSCAASGHTFSSYYMGWFRQAPGKEREFVAAIYSGGITTHYADSVKGRFTISADNSKNTAYLQMNSLKPEDTAVYYCAAWLNGGNRWGQGTLVTVSS	6.93	0.000121	17400	95.4
CD40L-37 (VHH) VHH: EVQLVESGGGLVQPGGSLRLSCAASGRTFSSYYMGWFRQAPGKEREEVATFYTGDGRTYYADSVKGRFTISADNSKNTAYLQMNSLKPEDTAVYYCAAWLNGGNRWGQGTLVTVSS	2.39	0.000199	83300	97.7
CD40L-49 (VHH) VHH: EVQLVESGGGLVQPGGSLRLSCAASGRTFSRYYMGWFRQAPGKEREFVAAIYWSNGKTQYADSVKGRFTISADNSKNTAYLQMNSLKPEDTAVYYCAAWLNGGNRWGQGTLVTVSS	47.9	0.00121	25300	36.8
CD40L-4 (VHH) VHH: EVQLVESGGGLVQPGGSLRLSCAASGFTLDYYAMGWFRQAPGKEREFVAYVFGGGEITDYADSVKGRFTISADNSKNTAYLQMNSLKPEDTAVYYCANGNGVAETWGQGTLVTVSS	5.82	0.00147	252000	11.8
CD40L-13 (VHH) VHH: EVQLVESGGGLVQPGGSLRLSCAASGFTFGNYDMGWFRQAPGKEREFVAAIDASGGFTEYADSVKGRFTISADNSKNTAYLQMNSLKPEDTAVYYCASDHYDTDTKSDVYNWGQGTLVTVSS	≤ 0.0113	≤ 1e-05	888000	37.3
CD40L-5 (VHH) VHH: EVQLVESGGGLVQPGGSLRLSCAASGLLFSSYDMGWFRQAPGKEREFVAAIDASGGFTEYADSVKGRFTISADNSKNTAYLQMNSLKPEDTAVYYCASDHYDTDTKSDVYNWGQGTLVTVSS	0.295	0.000196	662000	72.9
CD40L-8 (VHH) VHH: EVQLVESGGGLVQPGGSLRLSCAASGRTFSRSDMGWFRQAPGKEREFVAVISWSGAYTEYADSVKGRFTISADNSKNTAYLQMNSLKPEDTAVYYCASDHYDTDTKSDVYNWGQGTLVTVSS	1.37	0.0004	291000	80.9
CD40L-11 (VHH) VHH: EVQLVESGGGLVQPGGSLRLSCAASGRTWNDLDMGWFRQAPGKEREFVAAISMSGEDAAYADSVKGRFTISADNSKNTAYLQMNSLKPEDTAVYYCASDHYDTDTKSDVYNWGQGTLVTVSS	0.882	0.000574	651000	84
CD40L-14 (VHH) VHH: EVQLVESGGGLVQPGGSLRLSCAASGFTFSTYDMGWFRQAPGKEREFVAAVSQSGLLTFYADSVKGRFTISADNSKNTAYLQMNSLKPEDTAVYYCASDHYDTDTKSDVYNWGQGTLVTVSS	1.78	0.000538	303000	22.5
CD40L-31 (VHH) VHH: EVQLVESGGGLVQPGGSLRLSCAASGFTFDDSDMGWFRQAPGKEREFVAVVNWSGSSESYADSVKGRFTISADNSKNTAYLQMNSLKPEDTAVYYCASDHYDTDTKSDVYNWGQGTLVTVSS	6.5	0.000581	89300	18.5
CD40L-32 (VHH) VHH: EVQLVESGGGLVQPGGSLRLSCAASGFGFGSYDMGWFRQAPGKEREFVAAIYSDGGSAYYADSVKGRFTISADNSKNTAYLQMNSLKPEDTAVYYCASDHYDTDTKSDVYNWGQGTLVTVSS	0.272	6.18e-05	227000	152
CD40L-40 (VHH) VHH: EVQLVESGGGLVQPGGSLRLSCAASGFTFDDYDMGWFRQAPGKERELVAAISATGDDTYYADSVKGRFTISADNSKNTAYLQMNSLKPEDTAVYYCASDHYDTDTKSDVYNWGQGTLVTVSS	0.806	0.000319	396000	74.2
CD40L-43 (VHH) VHH: EVQLVESGGGLVQPGGSLRLSCAASGFSLDDYDMGWFRQAPGKEREFVAVISWSGAYTEYADSVKGRFTISADNSKNTAYLQMNSLKPEDTAVYYCASDHYDTDTKSDVYNWGQGTLVTVSS	0.251	0.000173	690000	83.8
CD40L-50 (VHH) VHH: EVQLVESGGGLVQPGGSLRLSCAASGFTFDDSDMGWFRQAPGKEREFVAAISMSGEDAAYADSVKGRFTISADNSKNTAYLQMNSLKPEDTAVYYCASDHYDTDTKSDVYNWGQGTLVTVSS	0.7	0.000577	824000	131
CD40L-54 (VHH) VHH: EVQLVESGGGLVQPGGSLRLSCAASGFTFDDYDMGWFRQAPGKEREFVAAIAWTGTNSYYADSVKGRFTISADNSKNTAYLQMNSLKPEDTAVYYCASDHYDTDTKSDVYNWGQGTLVTVSS	0.758	0.000399	526000	100
CD40L-56 (VHH) VHH: EVQLVESGGGLVQPGGSLRLSCAASGFTLDHYDMGWFRQAPGKEREFVAVINWSGAYTEYADSVKGRFTISADNSKNTAYLQMNSLKPEDTAVYYCASDHYDTDTKSDVYNWGQGTLVTVSS	0.422	0.000208	492000	68.4
CD40L-42 (VHH) VHH: EVQLVESGGGLVQPGGSLRLSCAASGSMSSINAMGWFRQAPGKEREFVAVIYSSDGSTLYADSVKGRFTISADNSKNTAYLQMNSLKPEDTAVYYCAAEPYGSGSSLISEYDWGQGTLVTVSS	2.46	0.000639	260000	40
CD40L-6 (VHH) VHH: EVQLVESGGGLVQPGGSLRLSCAASGSIDNIHAMGWFRQAPGKEREFIAVIYWRDGSSLYADSVKGRFTISADNSKNTAYLQMNSLKPEDTAVYYCAAEPYGSGSSLISEYDWGQGTLVTVSS	0.319	8.01e-05	251000	67.4
